# Measured values as given in IntAct's records for PubMed 15292222.
# B1: Protein phosphatase 1 regulatory subunit 12A (Homo sapiens), O14974 (parent)
# chain: MKMADAKQKRNEQLKRWIGSETDLEPPVVKRQKTKVKFDDGAVFLAACSSGDTDEVLKLLHRGADINYANVDGLTALHQACIDDNVDMVKFLVENGANINQPDNEGWIPLHAAASCGYLDIAEFLIGQGAHVGAVNSEGDTPLDIAEEEAMEELLQNEVNRQGVDIEAARKEEERIMLRDARQWLNSGHINDVRHAKSGGTALHVAAAKGYTEVLKLLIQAGYDVNIKDYDGWTPLHAAAHWGKEEACRILVDNLCDMEMVNKVGQTAFDVADEDILGYLEELQKKQNLLHSEKRDKKSPLIESTANMDNNQSQKTFKNKETLIIEPEKNASRIESLEQEKVDEEEEGKKDESSCSSEEDEEDDSESEAETDKTKPLASVTNANTSSTQAAPVAVTTPTVSSGQATPTSPIKKFPTTATKISPKEEERKDESPATWRLGLRKTGSYGALAEITASKEGQKEKDTAGVTRSASSPRLSSSLDNKEKEKDSKGTRLAYVAPTIPRRLASTSDIEEKENRDSSSLRTSSSYTRRKWEDDLKKNSSVNEGSTYHKSCSFGRRQDDLISSSVPSTTSTPTVTSAAGLQKSLLSSTSTTTKITTGSSSAGTQSSTSNRLWAEDSTEKEKDSVPTAVTIPVAPTVVNAAASTTTLTTTTAGTVSSTTEVRERRRSYLTPVRDEESESQRKARSRQARQSRRSTQGVTLTDLQEAEKTIGRSRSTRTREQENEEKEKEEKEKQDKEKQEEKKESETSREDEYKQKYSRTYDETYQRYRPVSTSSSTTPSSSLSTMSSSLYASSQLNRPNSLVGITSAYSRGITKENEREGEKREEEKEGEDKSQPKSIRERRRPREKRRSTGVSFWTQDSDENEQEQQSDTEEGSNKKETQTDSISRYETSSTSAGDRYDSLLGRSGSYSYLEERKPYSSRLEKDDSTDFKKLYEQILAENEKLKAQLHDTNMELTDLKLQLEKATQRQERFADRSLLEMEKRERRALERRISEMEEELKMLPDLKADNQRLKDENGALIRVISKLSK
# Variants of: B1
# Details: with dapk3_human DAPK3, O43293
# Chain of dapk3_human DAPK3, O43293 (O43293 whole entry, looked up): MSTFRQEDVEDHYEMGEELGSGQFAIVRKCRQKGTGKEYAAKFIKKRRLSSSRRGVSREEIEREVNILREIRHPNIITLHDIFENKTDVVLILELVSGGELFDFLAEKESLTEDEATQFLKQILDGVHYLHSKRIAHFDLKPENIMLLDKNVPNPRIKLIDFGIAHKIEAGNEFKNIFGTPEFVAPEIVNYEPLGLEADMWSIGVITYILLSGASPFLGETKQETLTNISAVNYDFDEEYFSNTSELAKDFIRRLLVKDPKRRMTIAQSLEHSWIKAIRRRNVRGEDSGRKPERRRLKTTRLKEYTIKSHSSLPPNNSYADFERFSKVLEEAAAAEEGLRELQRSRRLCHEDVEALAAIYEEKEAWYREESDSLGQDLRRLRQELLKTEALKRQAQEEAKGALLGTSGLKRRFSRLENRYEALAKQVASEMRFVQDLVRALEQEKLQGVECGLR
row,Variant,effect of a mutation on the interaction
1,L1007A;L1014A;L1021A;L1028A,disrupting interaction
